Response and response (% specific binding) data for six molecules are collected here from paper PMC5750214.

Assay [1] deals with β-arrestin-2-RLuc, P32121. The assay can be described thus: BRET. The following applies: chain shown with the change, HEK293A cells, read off a plot. (Bioluminescence resonance energy transfer reports proximity on the nanometre scale.)
For assay [2], the target named is β-arrestin-2-RLuc, P32121. The assay can be described thus: BRET. The following applies: chain shown with the change, HEK293A cells, read off a plot. The source holds these as a separate data set.
The target in another assay is [125I]-Angiotensin II. The experiment in a line: competitive radioligand binding assay. To be noted: chain shown with the change, value read from the curve at the x tick, read off a plot.
Assay [3] concerns the target β-arrestin-2-RLuc, P32121. The experiment in a line: BRET. The following applies: chain shown with the change, HEK293A cells, read off a plot. This is another data set of the same source.
Setting [4] is: Ang II (1 μM), parent: est. 0.672.
Where [5] appears, read: CTL (no stimulation), parent: est. 0.624.
Where [6] appears, read: Hcy (100 μM), parent: est. 0.632.
The mark [7] stands for this setting: no stimulation (open bar, labelled WT in the key), parent: est. 0.624.

Sequence of β-arrestin-2-RLuc, P32121 (P32121 whole entry): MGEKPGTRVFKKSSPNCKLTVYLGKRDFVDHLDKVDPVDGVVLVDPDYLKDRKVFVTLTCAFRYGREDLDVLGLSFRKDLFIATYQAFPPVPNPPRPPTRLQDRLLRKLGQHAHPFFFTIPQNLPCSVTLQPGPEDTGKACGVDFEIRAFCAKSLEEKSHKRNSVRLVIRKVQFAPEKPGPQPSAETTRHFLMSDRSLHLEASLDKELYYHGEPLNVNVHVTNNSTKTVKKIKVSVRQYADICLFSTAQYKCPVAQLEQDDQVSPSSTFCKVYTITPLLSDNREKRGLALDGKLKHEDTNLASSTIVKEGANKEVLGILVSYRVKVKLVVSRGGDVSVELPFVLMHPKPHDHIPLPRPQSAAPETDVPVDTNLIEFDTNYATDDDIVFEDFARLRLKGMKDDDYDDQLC

B1: AT1-YFP (wild type), P30556 R167N (protein)
chain: MILNSSTEDGIKRIQDDCPKAGRHNYIFVMIPTLYSIIFVVGIFGNSLVVIVIYFYMKLKTVASVFLLNLALADLCFLLTLPLWAVYTAMEYRWPFGNYLCKIASASVSFNLYASVFLLTCLSIDRYLAIVHPMKSRLRRTMLVAKVTCIIIWLLAGLASLPAIIHNNVFFIENTNITVCAFHYESQNSTLPIGLGLTKNILGFLFPFLIILTSYTLIWKALKKAYEIQKNKPRNDDIFKIIMAIVLFFFFSWIPHQIFTFLDVLIQLGIIRDCRIADIVDTAMPITICIAYFNNCLNPLFYGFLGKKFKRYFLQLLKYIPPKAKSHSNLSTKMSTLSYRPSDNVSSSTKKPAPCFEVE
With B1, the response is 0.657 Δ net BRET in assay [1] (setting [4]), 0.621 Δ net BRET in assay [1] (setting [5]), 0.621 Δ net BRET in assay [2] (setting [5]) and 0.62 Δ net BRET in assay [2] (setting [6]).

B2: human angiotensin II type 1 (AT1) receptor, P30556 C289S (protein)
chain: MILNSSTEDGIKRIQDDCPKAGRHNYIFVMIPTLYSIIFVVGIFGNSLVVIVIYFYMKLKTVASVFLLNLALADLCFLLTLPLWAVYTAMEYRWPFGNYLCKIASASVSFNLYASVFLLTCLSIDRYLAIVHPMKSRLRRTMLVAKVTCIIIWLLAGLASLPAIIHRNVFFIENTNITVCAFHYESQNSTLPIGLGLTKNILGFLFPFLIILTSYTLIWKALKKAYEIQKNKPRNDDIFKIIMAIVLFFFFSWIPHQIFTFLDVLIQLGIIRDCRIADIVDTAMPITISIAYFNNCLNPLFYGFLGKKFKRYFLQLLKYIPPKAKSHSNLSTKMSTLSYRPSDNVSSSTKKPAPCFEVE
In the case of B2, the response (% specific binding) turned out to be 31 in assay [125I]-Angiotensin II (competing Hcy at log [Hcy] (M) = -2, parent: est. 33); 76 in assay [125I]-Angiotensin II (competing Hcy at log [Hcy] (M) = -4, parent: est. 46); 100 in assay [125I]-Angiotensin II (competing Hcy at log [Hcy] (M) = -6, parent: est. 97).

B3: AT1-YFP (wild type), P30556 C289S (protein)
chain: MILNSSTEDGIKRIQDDCPKAGRHNYIFVMIPTLYSIIFVVGIFGNSLVVIVIYFYMKLKTVASVFLLNLALADLCFLLTLPLWAVYTAMEYRWPFGNYLCKIASASVSFNLYASVFLLTCLSIDRYLAIVHPMKSRLRRTMLVAKVTCIIIWLLAGLASLPAIIHRNVFFIENTNITVCAFHYESQNSTLPIGLGLTKNILGFLFPFLIILTSYTLIWKALKKAYEIQKNKPRNDDIFKIIMAIVLFFFFSWIPHQIFTFLDVLIQLGIIRDCRIADIVDTAMPITISIAYFNNCLNPLFYGFLGKKFKRYFLQLLKYIPPKAKSHSNLSTKMSTLSYRPSDNVSSSTKKPAPCFEVE
In the case of B3, the response in assay [3] (setting [6]) was 0.623 Δ net BRET; in assay [3] (setting [7]) it was 0.623 Δ net BRET; in assay [2] (setting [4]), 0.69 Δ net BRET; in assay [2] (setting [7]) it was 0.624 Δ net BRET.

B4: AT1-YFP (wild type), P30556 R167K (protein)
chain: MILNSSTEDGIKRIQDDCPKAGRHNYIFVMIPTLYSIIFVVGIFGNSLVVIVIYFYMKLKTVASVFLLNLALADLCFLLTLPLWAVYTAMEYRWPFGNYLCKIASASVSFNLYASVFLLTCLSIDRYLAIVHPMKSRLRRTMLVAKVTCIIIWLLAGLASLPAIIHKNVFFIENTNITVCAFHYESQNSTLPIGLGLTKNILGFLFPFLIILTSYTLIWKALKKAYEIQKNKPRNDDIFKIIMAIVLFFFFSWIPHQIFTFLDVLIQLGIIRDCRIADIVDTAMPITICIAYFNNCLNPLFYGFLGKKFKRYFLQLLKYIPPKAKSHSNLSTKMSTLSYRPSDNVSSSTKKPAPCFEVE
Consider B4, for which the response in assay [1] (setting [4]) was 0.621 Δ net BRET; in assay [1] (setting [5]), 0.618 Δ net BRET; in assay [2] (setting [5]), 0.619 Δ net BRET; in assay [2] (setting [6]), 0.618 Δ net BRET.

B5: AT1-YFP (wild type), P30556 R167A (protein)
chain: MILNSSTEDGIKRIQDDCPKAGRHNYIFVMIPTLYSIIFVVGIFGNSLVVIVIYFYMKLKTVASVFLLNLALADLCFLLTLPLWAVYTAMEYRWPFGNYLCKIASASVSFNLYASVFLLTCLSIDRYLAIVHPMKSRLRRTMLVAKVTCIIIWLLAGLASLPAIIHANVFFIENTNITVCAFHYESQNSTLPIGLGLTKNILGFLFPFLIILTSYTLIWKALKKAYEIQKNKPRNDDIFKIIMAIVLFFFFSWIPHQIFTFLDVLIQLGIIRDCRIADIVDTAMPITICIAYFNNCLNPLFYGFLGKKFKRYFLQLLKYIPPKAKSHSNLSTKMSTLSYRPSDNVSSSTKKPAPCFEVE
Turning to B5, the response was 0.628 Δ net BRET in assay [1] (setting [4]), 0.629 Δ net BRET in assay [1] (setting [5]), 0.626 Δ net BRET in assay [2] (setting [5]) and 0.622 Δ net BRET in assay [2] (setting [6]).

B6: human angiotensin II type 1 (AT1) receptor, P30556 R167A (protein)
chain: MILNSSTEDGIKRIQDDCPKAGRHNYIFVMIPTLYSIIFVVGIFGNSLVVIVIYFYMKLKTVASVFLLNLALADLCFLLTLPLWAVYTAMEYRWPFGNYLCKIASASVSFNLYASVFLLTCLSIDRYLAIVHPMKSRLRRTMLVAKVTCIIIWLLAGLASLPAIIHANVFFIENTNITVCAFHYESQNSTLPIGLGLTKNILGFLFPFLIILTSYTLIWKALKKAYEIQKNKPRNDDIFKIIMAIVLFFFFSWIPHQIFTFLDVLIQLGIIRDCRIADIVDTAMPITICIAYFNNCLNPLFYGFLGKKFKRYFLQLLKYIPPKAKSHSNLSTKMSTLSYRPSDNVSSSTKKPAPCFEVE
As for B6, the response (% specific binding) in assay [125I]-Angiotensin II (competing Hcy at log [Hcy] (M) = -2, parent: est. 34) was 34; in assay [125I]-Angiotensin II (competing Hcy at log [Hcy] (M) = -4, parent: est. 45), 66; in assay [125I]-Angiotensin II (competing Hcy at log [Hcy] (M) = -6, parent: est. 98), 100.
